Measurements: patent US10946092 (BEIJING MABWORKS BIOTECH, dated 2021)
Blank lines part the entries; values can stand above or below the binder they belong to.

Assays:
[1] = biological target: T1, human LAG3 expressed on HEK293A cells (human, UniProt P18627 23-525); assay: FACS on HEK293A/human LAG3 cells
T1 construct: whole, on cells; also called HEK293A/human LAG3
T1 sequence (looked up): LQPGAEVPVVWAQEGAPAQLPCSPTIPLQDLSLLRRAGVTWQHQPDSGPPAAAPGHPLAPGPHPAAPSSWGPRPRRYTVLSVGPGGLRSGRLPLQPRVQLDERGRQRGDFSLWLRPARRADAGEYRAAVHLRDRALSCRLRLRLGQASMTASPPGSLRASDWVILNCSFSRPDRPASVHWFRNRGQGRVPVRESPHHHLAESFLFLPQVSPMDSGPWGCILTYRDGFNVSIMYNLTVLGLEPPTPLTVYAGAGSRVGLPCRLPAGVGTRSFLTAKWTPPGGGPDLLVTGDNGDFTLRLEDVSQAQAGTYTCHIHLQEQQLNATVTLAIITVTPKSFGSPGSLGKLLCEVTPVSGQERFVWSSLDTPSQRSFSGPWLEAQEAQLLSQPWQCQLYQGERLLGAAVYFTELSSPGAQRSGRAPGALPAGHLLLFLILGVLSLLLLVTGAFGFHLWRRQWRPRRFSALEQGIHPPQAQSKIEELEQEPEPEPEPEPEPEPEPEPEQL
Method: Briefly, 10^5 HEK293A cells in 50 μl PBS buffers were seeded into each well of the 96-well plates and then added with 50 μl of serially diluted anti-LAG3 antibodies (5-fold dilution, starting from 40 μg/ml). After incubated at 4° C. for 1 hour, plates were washed 3 times with PBST. Then, an APC coupled Goat Anti-Mouse IgG (BioLegend, US, Cat #: 405308) diluted 500× was added to the plates. After incubation at 4° C. for 1 hour, the plates were washed with PBS for 3 times and then cell fluorescence was monitored using a FACS machine (BD).

[2] = biological target: T2, recombinant human LAG3(ECD)-his (Sino Biological, Cat #: 16498-H08H) (human, UniProt P18627 23-450); assay: ELISA, coated human LAG3(ECD)-his
T2 construct: extracellular domain; Bought protein; not shown: his tag
T2 sequence (looked up): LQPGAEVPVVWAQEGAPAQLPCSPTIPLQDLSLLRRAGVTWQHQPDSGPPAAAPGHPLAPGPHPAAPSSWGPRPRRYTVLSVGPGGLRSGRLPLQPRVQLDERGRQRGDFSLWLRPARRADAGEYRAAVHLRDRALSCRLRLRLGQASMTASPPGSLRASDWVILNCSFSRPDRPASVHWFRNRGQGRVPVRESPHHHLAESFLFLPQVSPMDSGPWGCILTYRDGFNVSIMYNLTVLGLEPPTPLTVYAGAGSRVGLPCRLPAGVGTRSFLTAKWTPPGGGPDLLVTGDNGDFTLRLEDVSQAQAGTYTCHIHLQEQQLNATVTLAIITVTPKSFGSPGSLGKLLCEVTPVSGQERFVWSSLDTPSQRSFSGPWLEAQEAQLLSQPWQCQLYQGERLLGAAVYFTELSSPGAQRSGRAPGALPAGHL
Method: The wells were blocked with 200 µl of blocking buffer (PBS containing 1% BSA, 1% goat serum, and 0.05% Tween 20) for 2 hours at room temperature, and then 100 µl of serially diluted anti-LAG3 antibodies (starting from 40 µg/ml) were added to each well and incubated for 1 hour at RT. Plates were washed for 3 times with PBST (PBS+0.05% Tween 20), added with Goat-anti-mouse IgG-HRP (Sigma, US, Cat #: A9309-1 ml) diluted 5000×, and incubated for 1 hour at RT. Plates were developed with freshly prepared Ultra-TMB (BD, US, Cat #:555214) for 5 minutes at RT. Absorbance was read on a SpectraMaxR i3X (Molecular Devies, US) at 450 nm.

[3] = biological target: T3, recombinant monkey LAG3(ECD)-hFc (ACRO, Cat #: LA3-05252) (monkey (rhesus), UniProt A0A5F8A874 23-450); assay: ELISA, coated monkey LAG3(ECD)-hFc
T3 construct: Bought protein; also called rhesus LAG3(ECD)-hFc; rh LAG3(ECD)-hFc; not shown: human Fc (hFc) and any linker
T3 sequence: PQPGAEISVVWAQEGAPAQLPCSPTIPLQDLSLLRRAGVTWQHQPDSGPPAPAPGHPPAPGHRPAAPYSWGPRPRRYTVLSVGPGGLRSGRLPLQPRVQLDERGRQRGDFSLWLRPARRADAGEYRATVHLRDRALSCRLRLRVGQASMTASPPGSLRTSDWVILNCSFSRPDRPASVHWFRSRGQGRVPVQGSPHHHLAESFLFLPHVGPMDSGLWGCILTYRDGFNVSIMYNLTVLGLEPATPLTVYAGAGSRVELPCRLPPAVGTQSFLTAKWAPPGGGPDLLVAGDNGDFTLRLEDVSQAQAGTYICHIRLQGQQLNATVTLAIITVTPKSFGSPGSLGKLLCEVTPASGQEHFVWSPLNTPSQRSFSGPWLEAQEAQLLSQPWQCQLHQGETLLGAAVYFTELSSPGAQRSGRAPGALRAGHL
Method: Species-cross-reactivity of the 12 LAG3 mAbs to monkey or mouse LAG3 was further tested by direct ELISA. Briefly, 50 µl of 500 ng/ml monkey LAG3(ECD)-hFc (ACRO, CN, Cat #: LA3-05252) or mouse LAG3-his (Sino Biological, CN, Cat #:53069-M08H) was coated on 96-well ELISA plates followed by incubation with 100 µl of serially diluted anti-LAG3 antibodies (starting from 40 µg/ml). Goat anti-mouse IgG conjugated with HRP (Sigma, US, Cat #: A9309-1 ml) was added then.

- EC50 [1]: 8.6 nM
- EC50 [2]: 1.92 nM
- EC50 [3]: 0.23 nM
B1: mouse anti-LAG3 monoclonal antibody 134G10 (antibody, V domains shown)
VH: EVQLVESGGDLVKPGGSLKLSCAASGFTFSSFGMSWVRQTPDKRLEWVGIISSGGTYTFYPDILKGRFTISRDNAKNTLYLQMSSLKSEDTAMYYCARVYSDYDGRFDYWGQGTTLTVSS
VL: DIVMTQSPSSLSVSAGEKVTMNCKSSQSLLNSGNQKNYLAWYQQKPGQPPKLLIYGASTRESGVPDRFTGSGSGTDFTLTISSVQAEDLAVYYCQNDHSYPLTFGAGTKLELK

- EC50 [1]: 0.36 nM
- EC50 [2]: 4 nM
- EC50 [3]: 2.3 nM
B2: mouse anti-LAG3 monoclonal antibody 101F4 (antibody, V domains shown)
VH: EVQLEQSGAELVRPGASVTLSCKASGYTFTDYEMHWVKQTPVYGLEWMGAIDPETGGIVYNQRFKGKAILTADKSSSTAYMELRSLTSEDSAVYYCTGAGWGYWGQGTTLTVSS
VL: DIVITQSPSSMYASLGERVTITCKASQDINSYLSWFQQKPGKSPKTLIYRANRLLDGVPSRFSGSGSGQDYSLTISSLEFEDMGLYYCLQYDEFPFTFGSGTKLEIK
